Assay results taken from the DeepSol protein solubility set.

Experiment: soluble on expression in E. coli; label from the status in PepcDB or PDB records

Row | Sequence | soluble on expression in E. coli
1 | MLKKKVNNDAGKTFILISSSCSSCQKAIEYFKENNLSYTIENFYKKPISDKRFRDILSLSEDGTESLFSKRADQIRSNTNQSVEDLTIPELIKLIRERPSILRRPIIIQYNSSGIPKRMRIGYNAAEIKVFERSLMEPKVRTVKK | soluble
2 | MLKKTLAALALGSALFTAGQAMAADYKIDKEGQHAFIEFRIKHLGYSWLYGRFNDFDGSFTFDEKNPSADKVKVTINTNSVDTNHAERDKHLRSGDFLNVSKNPTATFESTEVKANGDSADITGNLTLNGVTKPVTIKAKLIGQGDDPWGGYRAGFEGSATLKLKDFGIKMDLGPASQEVELLLSVEGIRQ | not soluble
3 | MLKVDKVFPWETFRGKLESPYSKKPKWDVILLLKVLLIKFVYEISWLEGEIRDSKMFMKFLGGKVHQKSILLLQETVVDEGERMWTTLMTQQGLRQGDLEHHHHHH | not soluble
4 | MLKVIRRFFTAKQRQTPAKQDVELESGRGWAGLEEWRLVAKYSVGPVEYYLYRDNSEGVRLTFKEPPEPGEAVVKEIIAGNIEPVGEGERYHAEKRMSGYGRLYPLIIDGHIEEIAFEGPGRGVSVIHSLVPGRWIDVDLKLGEDEANSLALQLARKAGRSLSLAQPLAEGLTGEGHRVAVTFSREVSRFGSSFVIRKYPEKPVTMADLVASRVLTPLQAAYLWLLVESQQFIVVSGPMGSGKTTLLQALAGLIPPFYRVITIEDTPEIRLYNRHWDSLVTRPPLPGESMVEVDLEALLRFALRRRAEYIIVGEVRGREARLLAQAAASGHGSMTTMHGDTPEGVILRLQLEPISLPPVFLSLIGAIVMLRRLPGYGGAVRRRVVSITEIEGGEAVDVFAWDPKGDLVSPDNPRDIVESSFRLREAVSRIPDLITDLEAELSERAGLLEKLAGSPPEVFHKALARFYSERYGRV | soluble
5 | MLLCDTNIWLALALSGHVHHRASRAWLDTINAPGVIHFCRATQQSLLRLLTNRTVLGAYGSPPLTNREAWAAYAAFLDDDRIVLAGAEPDGLEAQWRAFAVRQSPAPKVWMDAYLAAFALTGGFELVTTDTAFTQYGGIELRLLAK | not soluble
6 | MLLMEKILYQTDEFKLKPSGWYKTIPPKKDGGTEFEIMLSGPIAFTDRFIDPATRKEKVFLSDLNNIELVEKASILTALQLPSLIEYGFTINEKHIRDLGFVLQQMRSTTPLSTIYSGVGMLHTLLGPLISLDQPYFSNEITNSTSIICDNKYDLIPKGNLSEWLQMYKEEVHGNLSLELDVLFGVSSLVTAFLKYHNNVEFSGTIFSFTGQSSTGKSTAAMLAASVAGNPTKGTENLFRSWNATRNALEGYLSGNYGVPIVLDELSAATFHDTTGLLYSFAEGQGRQRANINGDVKTPKNLEHHHHHH | not soluble
7 | MLNDLYEEIKLRKTQPREGSYTNYLFDKGLDKILKKVGEEATEVVIAAKNDNQELIAEVSDLAYHLLVLLAEKNIPLVAIQTELQKREGKLSTTRDRKEINDL | not soluble
8 | MLNSYELGTSFSLEYPRLVLPWMSKKMMSSRFPQHTSFKLYASQLNRARFFKMLSFGGTVSYDFQPSRVWKHTVTPFRLAFNTLQHTTTRFDTIVDKNRSLKISLGNQFIPAMSYTFTYDNAPLKKRNNLWWETSFTSAGNLTSLVYAAFGKGFKETDKKLLNSPYAQFLKMTSEVRCLFKVGEKQHIATRLMGGILYAYGNQTVAPYSEQFYIGGANSIRAFTVRSIGPGSYRPEDKQYGYLDETGDVKLEANVEYRFPILGDLYGAAFLDAGNVWLLREQKNEEGENIRPGGLLTLRNFAKSIALGTGVGLRYDLTFLVIRLDLGIALHDPYDTGKKGYYNIPKFKDGLGLHFAIGYPFLEHHHHHH | soluble
9 | MLNTKSPSPANSNYDFALRHERVKLIARALKQFGVYITRTTQAMREVASCLSLVGQSYHEVAQCVNNTNPHSRADQDCYISFNRQLVESYGANLQNAATLFSAEMMNIKNGEQFLSYNKSVHRTVMTRLHDVLKMAQRTRDLGDDVKAELKKATSCRKVVSRKEAKYIRKGRPLTESKLYVRQSERMRKHDQAYEAKLRTFDTEYESLMQRQLYVAGHTMDDFLDMNTVYLSHILKVLGCLAPNGAEAIQKMLDSGEKLSDLLGIAPEDQLGCRLRAQNVDVLNSSNVTPVKRGVGATPGKGTPAKSSCCGSSHNFTSYYQNRRQAALYVEGAPPTARALGEDSRGSSEPCQTLSETPERQLISNQTPLRATFGSAAICRAASHSYSAAEPAAPSPLQPPSFPAAVRRVDAAPVPYVKPLAIGLHASCGSPGTTTDAAKQTCPAGNAAPAAWVVKTGGRRGSVCDTTNSRTRVELSLGHAQFDDDNTAAGAPPAACLAPAPPPAQYSEERPMERPLGRSEVPAAQAAMFGLDVARSAAPFDDQLVADSCRRTSLLSLKPVALFPLDVSESSISRKVAPRTSAATTSVANPSTQQRSRRDRKKHKTTKVVAAARGVPLPGTASAPPDEDTMSRSTSTQSQEALESSIHGYHAAHYHCPPPQQLHNLKQHPQRDSAPVSLAHFQMELTGCSGDAPCQWRNDGLCSEAGGVSGRSQRLSTSYGLDSPTPTPQPFALGTHAWEDSQVRPCSSA | not soluble
10 | MLNYTGLENKNVLVVGLAKSGYEAAKLLSKLGANVTVNDGKDLSQDAHAKDLESMGISVVSGSHPLTLLDNNPIIVKNPGIPYTVSIIDEAVKRGLKILTEVELSYLISEAPIIAVTGTNGKTTVTSLIGDMFKKSRLTGRLSGNIGYVASKVAQEVKPTDYLVTELSSFQLLGIEKYKPHIAIITNIYSAHLDYHENLENYQNAKKQIYKNQTEEDYLICNYHQRQVIESEELKAKTLYFSTQQEVDGIYIKDGFIVYKGVRIINTEDLVLPGEHNLENILAAVLACILAGVPIKAIIDSLTTFSGIEHRLQYVGTNRTNKYYNDSKATNTLATQFALNSFNQPIIWLCGGLDRGNEFDELIPYMENVRAMVVFGQTKAKFAKLGNSQGKSVIEANNVEDAVDKVQDIIEPNDVVLLSPACASWDQYSTFEERGEKFIERFRAHLPSY | not soluble
11 | MLPFLAASPGLGDVRAPAIWLGLVSQPSRTPIITKNSKTKRKTDGSTTRQSSSLGPRSSPLRSAGGQLRKTTRSELKKSHFHLGSWNAQSLLGPRLASGVEYLKNSTCHVVNLQETRFFSMASIDQPEFQLLFSPKTNSKDLGLGFFVKKCQDLEVINVSWIGVGIASLELEFRKVKIMVLNVYAPVCKSRSENDAKRFFERLRAEYIQLRKSFKGPIVLGGDFNAATSCSTNDELAPWICGNVFGNSNNHGDFFFNFLASTRLFQLNSRFRKRLASRWTFAGKKGVGRTEIDFFISNRIDLVEDVSTFPNLHNLSDHRLIRSRWVISVKSERDHAFKSRRPPSTGKERDWTLYEDAIKDLRKHATLGSYDSFVKTLRQGLVPLPAHKPHKFSQRTIMILQERRQVLESSVPDIAKLRKLSQEARKSITEDLTQKYDSILEACRKKRSSKILNKSIPAEIPLQYLEWPDGSLTANRIEIRKIVESHFKTLYEAPTSSPSHPRNPNSNPPNSDPVPAILKCEVRLEIRKLKTKSAPGLDNVDAAMLKNGGDTVVDSVTALFNDILHHNKVPDLWKIADVKLIPKKAKATKIKDFRPISLLPILSKMFSSILTRRLTPTLESYLDESQTKVFRKGRCCADNIQSLTMLIEKCNEFQLPLLLLFIDYQTAFDKISHSSVVSSLERAGADPAMRKMIQELMEGGQAEITVHDKKLKVNLCTGIRQGDSASPALFSAALQAILTDCDNELAGVGISVEGRHIRRLEFADDVVLICSTPEEVQERLEILDRISSNYGLKINQSKTVLLKNKFCRSQDILFNGSPIIPVPGCRYLGRWIDISGSIDEEISRRIRAGWGALVGIKEVLRIMPNKERIILFKQNVLPALLYASETWTCNAGSTLRLKRTVTGLIDAAEIRGWNFNLERYLLAKQSRFAGHILRRDPF | not soluble
12 | MLPKPGTYYLPWEVSAGQVPDGSTLRTFGRLCLYDMIQSRVTLMAQHGSDQHQVLVCTKLVEPFHAQVGSLYIVLGELQHQQDRGSVVKARVLTCVEGMNLPLLEQAIREQRLYKQERGGSQ | soluble
